# Reference: patent publication US20090031441A1 (NATIONAL UNIVERSITY CORPORATION NAGOYA UNIVERSITY, published 2009)
# T1: RGL2 (Arabidopsis DELLA protein), yeast two-hybrid prey in pGADT7 AD vector (Arabidopsis, UniProt Q8GXW1 1-547)
# T1 construct: also called AtDELLA
# T1 sequence (looked up): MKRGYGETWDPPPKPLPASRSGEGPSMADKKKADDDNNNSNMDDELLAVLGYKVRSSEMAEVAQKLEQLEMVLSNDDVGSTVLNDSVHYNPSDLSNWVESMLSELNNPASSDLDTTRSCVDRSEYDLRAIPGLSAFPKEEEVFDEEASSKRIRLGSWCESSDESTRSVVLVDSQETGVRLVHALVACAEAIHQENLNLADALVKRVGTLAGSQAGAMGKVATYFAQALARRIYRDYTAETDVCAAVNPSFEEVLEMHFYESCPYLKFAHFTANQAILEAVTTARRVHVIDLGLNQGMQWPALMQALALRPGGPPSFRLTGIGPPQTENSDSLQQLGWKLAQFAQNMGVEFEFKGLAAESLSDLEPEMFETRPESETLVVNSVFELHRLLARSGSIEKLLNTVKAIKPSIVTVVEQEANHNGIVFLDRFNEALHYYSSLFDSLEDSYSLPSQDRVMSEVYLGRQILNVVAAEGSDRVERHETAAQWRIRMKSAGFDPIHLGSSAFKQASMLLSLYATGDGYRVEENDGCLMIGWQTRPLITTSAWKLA
# T2: RGL1 (Arabidopsis DELLA protein), yeast two-hybrid prey in pGADT7 AD vector (Arabidopsis, UniProt Q9C8Y3 1-511)
# T2 construct: also called AtDELLA
# T2 sequence (looked up): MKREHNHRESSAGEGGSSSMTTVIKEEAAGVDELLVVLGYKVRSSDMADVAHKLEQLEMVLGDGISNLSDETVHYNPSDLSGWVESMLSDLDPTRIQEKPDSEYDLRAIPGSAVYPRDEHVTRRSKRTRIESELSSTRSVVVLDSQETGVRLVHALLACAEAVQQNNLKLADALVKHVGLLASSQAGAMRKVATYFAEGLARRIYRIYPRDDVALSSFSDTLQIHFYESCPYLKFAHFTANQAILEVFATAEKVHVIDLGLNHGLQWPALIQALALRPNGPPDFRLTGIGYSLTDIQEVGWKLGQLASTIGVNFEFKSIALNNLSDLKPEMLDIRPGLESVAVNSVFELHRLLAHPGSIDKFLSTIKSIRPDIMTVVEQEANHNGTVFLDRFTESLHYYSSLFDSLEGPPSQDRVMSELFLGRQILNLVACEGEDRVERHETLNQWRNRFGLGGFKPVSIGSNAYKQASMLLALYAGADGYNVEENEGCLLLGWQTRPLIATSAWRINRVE
# B1: AtGID1a (At3g05120), yeast two-hybrid bait in pGBKT7 DNA-BD vector (receptor, not shown: small tags and cut ends)
# chain: MAASDEVNLIESRTVVPLNTWVLISNFKVAYNILRRPDGTFNRHLAEYLDRKVTANANPVDGVFSFDVLIDRRINLLSRVYRPAYADQEQPPSILDLEKPVDGDIVPVILFFHGGSFAHSSANSAIYDTLCRRLVGLCKCVVVSVNYRRAPENPYPCAYDDGWIALNWVNSRSWLKSKKDSKVHIFLAGDSSGGNIAHNVALRAGESGIDVLGNILLNPMFGGNERTESEKSLDGKYFVTVRDRDWYWKAFLPEGEDREHPACNPFSPRGKSLEGVSFPKSLVVVAGLDLIRDWQLAYAEGLKKAGQEVKLMHLEKATVGFYLLPNNNHFHNVMDEISAFVNAEC
# notes: Bait fusion for the Y2H assays (BD Matchmaker Two-hybrid System 3); also called Arabidopsis GID1
# B2: AtGID1b (At3g63010), yeast two-hybrid bait in pGBKT7 DNA-BD vector (receptor, not shown: small tags and cut ends)
# chain: MAGGNEVNLNECKRIVPLNTWVLISNFKLAYKVLRRPDGSFNRDLAEFLDRKVPANSFPLDGVFSFDHVDSTTNLLTRIYQPASLLHQTRHGTLELTKPLSTTEIVPVLIFFHGGSFTHSSANSAIYDTFCRRLVTICGVVVVSVDYRRSPEHRYPCAYDDGWNALNWVKSRVWLQSGKDSNVYVYLAGDSSGGNIAHNVAVRATNEGVKVLGNILLHPMFGGQERTQSEKTLDGKYFVTIQDRDWYWRAYLPEGEDRDHPACNPFGPRGQSLKGVNFPKSLVVVAGLDLVQDWQLAYVDGLKKTGLEVNLLYLKQATIGFYFLPNNDHFHCLMEELNKFVHSIEDSQSKSSPVLLTP
# notes: Bait fusion for the Y2H assays; also called Arabidopsis GID1
# Legend:
# [1] = biological target: T1, RGL2 (Arabidopsis DELLA protein), yeast …; assay: yeast two-hybrid system
# Method: (§1) Arabidopsis has five DELLA proteins (RGA, GAI, RGL1, RGL2, and RGL3; collectively designated AtDELLA; Fleet, C. M., and Sun, T.-P. (2005) Curr. Opin. Plant Biol., 8, 77-85; Dill, A., and Sun, T. (2001) Genetics, 159, 777-785); therefore, there are 15 possible combinations of GID1/DELLA proteins. To verify the positive interactions between AtGID1-AtDELLA, two experiments were conducted using the yeast two hybrid (Y2H) system. In the first experiment (Assay A), a viable colony assay using a defined medium in which only positive clones would survive was carried out. In the second experiment (Assay B), β-galactosidase activity was measured, as reporter gene product of AtGID1-AtDELLA interactions.
# BD Matchmaker Two-hybrid System 3 (Clontech, Palo Alto, Calif., USA; now part of Takara Bio) was used in the Y2H experiments. After confirming the PCR products of the AtGID1 genes by sequencing, PCR products were cloned into pGBKT7 DNA-BD shuttle vector to construct bait plasmids. Likewise, the entire coding region of each AtDELLA gene (GAI including EcoRI and XhoI sites; RGA including BamHI and XhoI sites; RGL1 including SmaI and SacI sites; RGL2 including SmaI and ClaI sites; RGL3 including SmaI and XhoI sites on the ends) was cloned into pGADT7 AD vector. The S. cerevisiae AH109 (MATa) strain or Y187 (MATα) strain was used, and DNA-BD and AD vector cassettes were used as negative controls. The details of the method used for the yeast assay are as described in the manufacturer's instructions (Yeast Protocols Handbook #PT3024-1; http://www.clontech.com/). Experiments were carried out four times independently. Similar results were obtained each time.
# [2] = biological target: T2, RGL1 (Arabidopsis DELLA protein), yeast …; assay: yeast two-hybrid without GA (FIG. 11); member RGL1 named in the legend of FIG. 11
# Method: as §1
# BD Matchmaker Two-hybrid System 3 (Clontech, Palo Alto, Calif., USA; now part of Takara Bio) was used in the Y2H experiments. After confirming the PCR products of the AtGID1 genes by sequencing, PCR products were cloned into pGBKT7 DNA-BD shuttle vector to construct bait plasmids. […]
# Thus, GA₄ (10⁻⁵ M) was used and added to the medium. […] As described above, all AtGID1-AtDELLA interactions were detected in a GA-dependent manner; however, interactions between AtGID1b and some AtDELLAs were detected, albeit weakly, in the absence of GA (FIG. 11).
Binder,binding result [1],binding result [2]
B1,binds,–
B2,binds,binds
